This note sets out measurements from PMC5103362 (Autophagy, 2016).

Series [1] concerns the molecule itself. Kind of series: SEC-MALS; Atg38 full-length, MIT domain and deletion variants alone on S75 10/30; 20 mM Tris pH 7.9, 300 mM NaCl, 1 mM TCEP. A general note: SEC sorts molecules by how far they enter the pores of the column.
Series [2] concerns the target T1, yeast complex I (Vps15-Vps34-Vps30-Atg14 heterotetramer) (S. cerevisiae, UniProt P22219 1-1454; P22543 1-875; Q02948 1-557; P38270 1-344).
T1 construct: Vps15, S. cerevisiae, subunit of complex I; Vps34, S. cerevisiae, subunit of complex I; Vps30/Atg6, S. cerevisiae, subunit of complex I; Atg14, S. cerevisiae, subunit of complex I; expected mass 379 kDa; also called CI; heterotetrameric S. cerevisiae complex I; copies: 1 + 1 + 1 + 1
Kind of series: SEC; purified yeast complex I mixed with purified Atg38 at 6:1 or 1:6 molar ratio (8.6 µM complex I with 1.4 or 51.7 µM Atg38), on ice 30 min, S200 10/30; 20 mM Tris pH 8.8, 150 mM NaCl, 0.5 mM TCEP; fractions on SDS-PAGE. To be noted: both partners purified.

Series [3] deals with T1, yeast complex I …. Kind of series: SEC-MALS; purified yeast complex I (co-expressed, co-purified) and gel-filtration purified complex I + Atg38 on S200 10/30; 20 mM Tris pH 8.8, 150 mM NaCl, 1 mM TCEP. To be noted: both partners purified.
Series [4] has as its target T2, Atg14 (subunit of the purified yeast complex I) (S. cerevisiae, UniProt P38270 1-344).
T2 construct: Atg14, S. cerevisiae
T2 sequence (looked up): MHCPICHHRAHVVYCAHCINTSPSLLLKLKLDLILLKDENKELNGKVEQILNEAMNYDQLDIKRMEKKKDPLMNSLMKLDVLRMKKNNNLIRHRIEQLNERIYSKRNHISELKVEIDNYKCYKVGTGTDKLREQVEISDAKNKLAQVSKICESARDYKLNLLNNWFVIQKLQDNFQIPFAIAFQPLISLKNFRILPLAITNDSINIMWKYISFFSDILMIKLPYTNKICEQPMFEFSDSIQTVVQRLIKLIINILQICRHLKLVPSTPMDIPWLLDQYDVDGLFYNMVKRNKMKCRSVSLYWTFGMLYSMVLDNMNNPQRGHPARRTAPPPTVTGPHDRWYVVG
The series is described as follows: HDX-MS; complex I, free Atg38 and gel-filtered complex I + Atg38; 2.5 µM protein, 20 mM Tris pH 8.0, 50 mM NaCl, 2 mM TCEP, 75% D2O, 3 to 3000 sec at 23°C. To be noted: both partners purified.

Series [5] has as its target T3, Vps15, full-length (of the Vps15-Vps34 D731N dimer) (S. cerevisiae, UniProt P22219 1-1454).
T3 construct: Vps15, yeast (S. cerevisiae), full-length; also called ScVps15
T3 sequence (looked up): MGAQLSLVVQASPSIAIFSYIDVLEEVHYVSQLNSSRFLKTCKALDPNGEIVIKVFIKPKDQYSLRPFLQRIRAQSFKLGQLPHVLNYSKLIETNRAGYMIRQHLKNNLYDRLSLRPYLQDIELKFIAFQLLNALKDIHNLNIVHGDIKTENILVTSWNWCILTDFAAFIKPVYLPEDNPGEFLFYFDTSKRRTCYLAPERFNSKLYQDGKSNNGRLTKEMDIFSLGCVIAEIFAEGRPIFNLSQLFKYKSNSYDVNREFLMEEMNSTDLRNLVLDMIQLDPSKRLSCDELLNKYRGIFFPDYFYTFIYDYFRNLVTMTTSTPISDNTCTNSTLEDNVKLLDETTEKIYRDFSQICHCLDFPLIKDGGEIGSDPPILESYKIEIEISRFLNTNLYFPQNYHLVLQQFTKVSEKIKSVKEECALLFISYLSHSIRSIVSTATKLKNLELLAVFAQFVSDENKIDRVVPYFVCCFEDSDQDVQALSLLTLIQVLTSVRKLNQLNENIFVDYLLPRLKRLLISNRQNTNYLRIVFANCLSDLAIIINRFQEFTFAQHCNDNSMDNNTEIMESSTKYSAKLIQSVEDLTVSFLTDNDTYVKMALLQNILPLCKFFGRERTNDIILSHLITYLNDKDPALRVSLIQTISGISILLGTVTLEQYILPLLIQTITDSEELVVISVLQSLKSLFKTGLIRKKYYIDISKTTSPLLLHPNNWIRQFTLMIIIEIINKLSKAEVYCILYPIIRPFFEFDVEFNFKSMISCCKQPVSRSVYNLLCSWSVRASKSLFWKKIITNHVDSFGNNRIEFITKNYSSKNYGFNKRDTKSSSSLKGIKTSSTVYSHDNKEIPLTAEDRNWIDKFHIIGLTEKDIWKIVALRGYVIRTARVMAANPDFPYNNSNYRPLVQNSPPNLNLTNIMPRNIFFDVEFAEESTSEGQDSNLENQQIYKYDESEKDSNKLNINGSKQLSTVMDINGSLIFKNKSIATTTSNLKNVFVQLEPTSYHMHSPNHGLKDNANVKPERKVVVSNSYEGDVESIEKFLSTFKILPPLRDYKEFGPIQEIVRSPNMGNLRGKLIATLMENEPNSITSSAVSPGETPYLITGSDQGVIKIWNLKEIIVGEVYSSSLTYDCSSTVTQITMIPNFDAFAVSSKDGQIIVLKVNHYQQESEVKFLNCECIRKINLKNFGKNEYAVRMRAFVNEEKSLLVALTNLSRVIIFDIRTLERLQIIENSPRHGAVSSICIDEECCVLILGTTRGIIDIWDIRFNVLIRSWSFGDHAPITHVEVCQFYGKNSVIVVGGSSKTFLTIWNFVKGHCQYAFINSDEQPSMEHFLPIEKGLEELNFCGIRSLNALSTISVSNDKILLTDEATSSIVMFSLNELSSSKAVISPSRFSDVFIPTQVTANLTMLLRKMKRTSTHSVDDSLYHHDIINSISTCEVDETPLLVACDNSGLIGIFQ
The series is described as follows: negative-stain EM reconstruction; co-purified yeast Vps15-Vps34 D731N and Vps15 (WD40Δ)-Vps34 D731N dimers, 2% uranyl acetate; 28 Å. To be noted: both partners purified.

Another series concerns the target T4, Vps15 (WD40Δ) (1 to 981) (S. cerevisiae, UniProt P22219 1-981).
T4 construct: Vps15, yeast (S. cerevisiae), residues 1 to 981, without the WD40 domain; also called Vps15Δ WD40; ScVps15 (WD40Δ)
T4 sequence (looked up): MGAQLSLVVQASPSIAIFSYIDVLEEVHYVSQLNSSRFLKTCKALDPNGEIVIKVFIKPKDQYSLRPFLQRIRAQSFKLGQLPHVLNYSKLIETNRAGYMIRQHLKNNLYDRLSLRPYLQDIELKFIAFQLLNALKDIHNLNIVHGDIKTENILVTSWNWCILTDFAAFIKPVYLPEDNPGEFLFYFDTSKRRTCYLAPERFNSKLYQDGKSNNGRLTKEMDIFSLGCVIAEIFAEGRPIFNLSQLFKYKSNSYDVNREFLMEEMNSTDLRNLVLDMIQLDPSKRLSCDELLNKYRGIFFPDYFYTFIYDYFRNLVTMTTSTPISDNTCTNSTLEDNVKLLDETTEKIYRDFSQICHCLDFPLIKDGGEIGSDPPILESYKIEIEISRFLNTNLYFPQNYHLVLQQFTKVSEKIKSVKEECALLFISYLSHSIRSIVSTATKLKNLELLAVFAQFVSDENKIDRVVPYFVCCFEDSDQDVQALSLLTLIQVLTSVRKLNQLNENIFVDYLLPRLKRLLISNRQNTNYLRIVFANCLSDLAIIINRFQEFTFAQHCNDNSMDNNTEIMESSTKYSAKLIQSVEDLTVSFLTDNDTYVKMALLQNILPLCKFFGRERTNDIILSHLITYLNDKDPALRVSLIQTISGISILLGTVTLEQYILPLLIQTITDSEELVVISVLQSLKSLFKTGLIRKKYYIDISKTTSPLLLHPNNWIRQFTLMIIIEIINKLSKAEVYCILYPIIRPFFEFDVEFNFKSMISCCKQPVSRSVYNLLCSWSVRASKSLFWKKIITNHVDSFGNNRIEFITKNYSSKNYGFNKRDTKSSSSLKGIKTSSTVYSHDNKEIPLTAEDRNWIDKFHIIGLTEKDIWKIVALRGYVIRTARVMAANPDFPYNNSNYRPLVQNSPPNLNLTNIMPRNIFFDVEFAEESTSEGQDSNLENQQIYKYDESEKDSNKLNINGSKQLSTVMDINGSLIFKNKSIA
Described as above. The settings on record: both partners purified.

T1 sequence (Q02948 whole entry, one chain of several): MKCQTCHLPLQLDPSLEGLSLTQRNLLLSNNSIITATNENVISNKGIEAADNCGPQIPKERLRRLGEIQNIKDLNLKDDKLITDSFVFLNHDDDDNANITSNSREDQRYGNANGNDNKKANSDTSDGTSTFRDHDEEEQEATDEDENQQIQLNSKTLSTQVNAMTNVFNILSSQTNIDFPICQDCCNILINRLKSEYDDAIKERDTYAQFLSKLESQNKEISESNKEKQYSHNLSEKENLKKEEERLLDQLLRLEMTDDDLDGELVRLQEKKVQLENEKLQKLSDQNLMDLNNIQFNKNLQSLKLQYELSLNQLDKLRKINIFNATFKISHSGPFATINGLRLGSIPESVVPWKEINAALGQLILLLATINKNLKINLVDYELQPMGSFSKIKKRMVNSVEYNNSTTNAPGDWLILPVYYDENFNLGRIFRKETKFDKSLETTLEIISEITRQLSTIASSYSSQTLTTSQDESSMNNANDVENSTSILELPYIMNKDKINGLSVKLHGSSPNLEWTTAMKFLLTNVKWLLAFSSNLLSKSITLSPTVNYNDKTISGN

B1: Atg38, full-length (natural protein, S. cerevisiae, UniProt Q05789 1-226, looked up)
chain: MSTLAEVYTIIEDAEQECRKGDFTNAKAKYQEAIEVLGPQNENLSQNKLSSDVTQAIDLLKQDITAKIQELELLIEKQSSEENNIGMVNNNMLIGSVILNNKSPINGISNARNWDNPAYQDTLSPINDPLLMSILNRLQFNLNNDIQLKTEGGKNSKNSEMKINLRLEQFKKELVLYEQKKFKEYGMKIDEITKENKKLANEIGRLRERWDSLVESAKQRRDKQKN
notes: also called purified Atg38; free Atg38; source: E. coli, purified (Glutathione Sepharose, TEV, HiTrap Q, S75); not shown: GST, N-terminal, cleaved
As for B1, the “stoichiometry N” value in series [1] was 2; in series [2], 2 Atg38 chains per complex I; in series [3], 1 Atg38 homodimer per complex I. Also, the binding result in series [4] is “binds”.

B2: Vps34 D731N (KI) (enzyme, S. cerevisiae, UniProt P22543 1-875, looked up)
chain: MSLNNITFCVSQDLDVPLKVKIKSLEGHKPLLKPSQKILNPELMLIGSNVFPSSDLIVSLQVFDKERNRNLTLPIYTPYIPFRNSRTWDYWLTLPIRIKQLTFSSHLRIILWEYNGSKQIPFFNLETSIFNLKDCTLKRGFESLKFRYDVIDHCEVVTDNKDQENLNKYFQGEFTRLPWLDEITISKLRKQRENRTWPQGTFVLNLEFPMLELPVVFIEREIMNTQMNIPTLKNNPGLSTDLREPNRNDPQIKISLGDKYHSTLKFYDPDQPNNDPIEEKYRRLERASKNANLDKQVKPDIKKRDYLNKIINYPPGTKLTAHEKGSIWKYRYYLMNNKKALTKLLQSTNLREESERVEVLELMDSWAEIDIDDALELLGSTFKNLSVRSYAVNRLKKASDKELELYLLQLVEAVCFENLSTFSDKSNSEFTIVDAVSSQKLSGDSMLLSTSHANQKLLKSISSESETSGTESLPIVISPLAEFLIRRALVNPRLGSFFYWYLKSESEDKPYLDQILSSFWSRLDKKSRNILNDQVRLINVLRECCETIKRLKDTTAKKMELLVHLLETKVRPLVKVRPIALPLDPDVLICDVCPETSKVFKSSLSPLKITFKTTLNQPYHLMFKVGDDLRQDQLVVQIISLMNELLKNENVDLKLTPYKILATGPQEGAIEFIPNDTLASILSKYHGILGYLKLHYPDENATLGVQGWVLDNFVKSCAGYCVITYILGVGNRHLDNLLVTPDGHFFHADFGYILGQDPKPFPPLMKLPPQIIEAFGGAESSNYDKFRSYCFVAYSILRRNAGLILNLFELMKTSNIPDIRIDPNGAILRVRERFNLNMSEEDATVHFQNLINDSVNALLPIVIDHLHNLAQYWRT
Regarding B2, the binding result (in series [5]; with Vps15 (WD40Δ) (1 to 981)) was “binds” in each case.

For orientation: stoichiometry N means the number of molecules, sites or subunits per partner or assembly.
